Measured values taken from publication PMC4137059 (The Journal of Cell Biology, 2014).
No end group written: not given here.

B2: Mtw1-Nnf1 heterodimer (complex)
chain 1: MSAPTMRSTSILTEHLGYPPISLVDDIINAVNEIMYKCTAAMEKYLLSKSKIGEEDYGEEIKSGVAKLESLLENSVDKNFDKLELYVLRNVLRIPEEYLDANVFRLENQKDLVIVDENELKKSEEKLREKVNDVELAFKKNEMLLKRVTKVKRLLFTIRGFKQKLNELLKCKDDVQLQKILESLKPIDDTMTLLTDSLRKLYVDSESTSSTEEVEALLQRLKTNGKQNNKDFRTRYIDIRTNNVLRKLGLLGDKEDEKQSAKPDARTQAGDIVSIDIEEPQLDLLDDVL
chain 2: MVNSHGIRYIRLKQVFNRALDQSISKLQSWDKVSSCFPQYVNSKQGAINVANCQRQLTEFWTELCQREFKEIMEERNVEQKLNELDELILEAKERYTDRDQDEVNKGPAIDELSSKELVECHLYSQRMHAIHEIDERLAKVNEMNDQLAQELKDLETQVEVEKNEIGKMYDEYLGSHTDQPANVLLVQSLNDMVLELKENY

Legend:
Ndc80 complex = Ndc80 complex (budding yeast, UniProt P40460;P33895;Q04477;P40014); experiment: SEC
Chain of Ndc80 complex (P40460 whole entry, chain 1 of 4): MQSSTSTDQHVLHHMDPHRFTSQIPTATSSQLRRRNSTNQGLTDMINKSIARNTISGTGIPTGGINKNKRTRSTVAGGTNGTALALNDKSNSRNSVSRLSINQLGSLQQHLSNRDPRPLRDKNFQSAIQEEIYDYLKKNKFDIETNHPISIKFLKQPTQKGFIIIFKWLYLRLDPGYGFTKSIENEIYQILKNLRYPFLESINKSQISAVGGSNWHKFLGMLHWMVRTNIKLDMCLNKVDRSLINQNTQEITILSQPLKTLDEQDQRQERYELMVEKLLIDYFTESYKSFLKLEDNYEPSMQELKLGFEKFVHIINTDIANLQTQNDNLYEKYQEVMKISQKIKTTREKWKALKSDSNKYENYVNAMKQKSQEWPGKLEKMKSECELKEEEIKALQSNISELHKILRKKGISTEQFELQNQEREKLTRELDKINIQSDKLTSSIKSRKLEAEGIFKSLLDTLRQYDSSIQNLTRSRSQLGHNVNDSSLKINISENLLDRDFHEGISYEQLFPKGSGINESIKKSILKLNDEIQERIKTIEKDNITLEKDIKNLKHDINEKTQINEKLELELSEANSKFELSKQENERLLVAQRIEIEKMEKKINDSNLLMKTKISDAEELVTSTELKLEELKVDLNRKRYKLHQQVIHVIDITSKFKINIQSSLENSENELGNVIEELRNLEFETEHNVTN
Chain of Ndc80 complex (P33895 whole entry, chain 2 of 4): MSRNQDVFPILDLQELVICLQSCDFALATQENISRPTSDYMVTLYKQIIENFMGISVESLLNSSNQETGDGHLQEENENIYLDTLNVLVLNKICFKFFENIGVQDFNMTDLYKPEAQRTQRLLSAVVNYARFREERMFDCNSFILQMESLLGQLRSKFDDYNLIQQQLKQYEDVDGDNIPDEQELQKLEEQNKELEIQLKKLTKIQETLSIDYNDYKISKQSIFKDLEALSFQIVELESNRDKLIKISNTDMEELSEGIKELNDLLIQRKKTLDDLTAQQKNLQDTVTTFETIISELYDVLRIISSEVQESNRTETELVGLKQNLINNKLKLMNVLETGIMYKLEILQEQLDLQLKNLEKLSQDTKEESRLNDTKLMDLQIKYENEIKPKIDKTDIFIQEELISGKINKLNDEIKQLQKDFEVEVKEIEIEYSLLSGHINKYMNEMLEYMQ
Chain of Ndc80 complex (Q04477 whole entry, chain 3 of 4): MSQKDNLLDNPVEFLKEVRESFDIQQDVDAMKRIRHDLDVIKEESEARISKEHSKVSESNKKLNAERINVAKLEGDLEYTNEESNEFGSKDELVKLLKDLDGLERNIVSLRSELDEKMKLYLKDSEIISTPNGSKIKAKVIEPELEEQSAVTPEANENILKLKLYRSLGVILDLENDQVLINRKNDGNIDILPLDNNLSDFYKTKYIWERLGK
Chain of Ndc80 complex (P40014 whole entry, chain 4 of 4): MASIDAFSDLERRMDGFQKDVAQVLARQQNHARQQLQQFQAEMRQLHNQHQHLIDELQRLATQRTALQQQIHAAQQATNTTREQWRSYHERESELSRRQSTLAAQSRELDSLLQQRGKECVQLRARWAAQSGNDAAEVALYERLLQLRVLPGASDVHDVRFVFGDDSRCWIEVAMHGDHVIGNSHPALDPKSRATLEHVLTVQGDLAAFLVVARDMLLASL

Ame1–Okp1 complex = Ame1–Okp1 complex (budding yeast, UniProt P38313;P53298); experiment: ITC
Chain of Ame1–Okp1 complex (P53298 whole entry, one chain of several): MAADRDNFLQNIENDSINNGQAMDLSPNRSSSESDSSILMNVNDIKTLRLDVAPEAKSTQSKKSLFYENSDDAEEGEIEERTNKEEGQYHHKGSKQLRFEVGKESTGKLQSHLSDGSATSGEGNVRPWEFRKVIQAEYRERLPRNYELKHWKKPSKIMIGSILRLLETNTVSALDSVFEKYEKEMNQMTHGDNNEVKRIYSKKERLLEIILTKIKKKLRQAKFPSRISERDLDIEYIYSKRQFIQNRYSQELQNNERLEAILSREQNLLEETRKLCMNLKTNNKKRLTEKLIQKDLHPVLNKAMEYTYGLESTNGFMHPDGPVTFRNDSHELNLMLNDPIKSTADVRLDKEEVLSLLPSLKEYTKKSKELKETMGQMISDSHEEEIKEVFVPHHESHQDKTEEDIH

Mtw1-Nnf1 heterodimer = target: B2; experiment: ITC

B1: Mtw1 complex (recombinant four-protein complex with a deletion of the N-terminal 172 residues of Dsn1) (complex)
chain 1: MSAPTMRSTSILTEHLGYPPISLVDDIINAVNEIMYKCTAAMEKYLLSKSKIGEEDYGEEIKSGVAKLESLLENSVDKNFDKLELYVLRNVLRIPEEYLDANVFRLENQKDLVIVDENELKKSEEKLREKVNDVELAFKKNEMLLKRVTKVKRLLFTIRGFKQKLNELLKCKDDVQLQKILESLKPIDDTMTLLTDSLRKLYVDSESTSSTEEVEALLQRLKTNGKQNNKDFRTRYIDIRTNNVLRKLGLLGDKEDEKQSAKPDARTQAGDIVSIDIEEPQLDLLDDVL
chain 2: MVNSHGIRYIRLKQVFNRALDQSISKLQSWDKVSSCFPQYVNSKQGAINVANCQRQLTEFWTELCQREFKEIMEERNVEQKLNELDELILEAKERYTDRDQDEVNKGPAIDELSSKELVECHLYSQRMHAIHEIDERLAKVNEMNDQLAQELKDLETQVEVEKNEIGKMYDEYLGSHTDQPANVLLVQSLNDMVLELKENY
chain 3: MSQGQSKKLDVTVEQLRSIYHQFHDILEEKTDLHLPKKEYDDDAVRREVQIQLQEFLLSAMTMASKSLEVVNADTVGKTVKQLIMESQEKYMEPFDLDLNEQVRKMYQEWEDETVKVAQLRQTGPAKINEVYNNSKDEYLAQLDGRIGVLQARMMQQQSADHDDSTDDADDHINWEHIKQDYVASLNELYQTQQDLPKVRYNVEKVKRLMDFLEED
chain 4: HSIMPNSSLQPFYSQPTAAGGPDMTTPQNISSSQQLLPAPQLFPYGSFHQQQLQQPHYIQRTRERKKSIGSQRGRRLSMLASQANGGSTIISPHKDIPEEDFYTVVGNASFGKNLQIRQLFNWCLMRSLHKLELKAKNQEEEGELEHLTKKSKLESTKAETDYVDPKRLAMVIIKEFVDDLKKDHIAIDWEDEEKYEDEDEEKILDNTENYDDTELRQLFQENDDDDDDDDEVDYSEIQRSRRKFSERRKALPKEPKKLLPNSKNVENTKNLSILTSKVNAIKNEVKEWAVTLDTSRPDLEWQELTSFSSQPLEPLSDTEEPDLAIADVETKLETKVDELRYQSHILNSHSLALNEITNSKVNKLNIETMRKISSETDDDHSQVINPQQLLKGLSLSFSKKLDL
B1: binds (Ndc80 complex).

With B2 the Kd (Ame1–Okp1 complex) was 1600 nM and the “stoichiometry N” value (Ame1–Okp1 complex) was 1.

Binder {GST}-MDRDTKLAFRLRGSHSRRTDDIDDDVIVFK (domain or fragment) [GST-Ame1^1-30] has a Kd (Mtw1-Nnf1 heterodimer) of 1500 nM.
